# Assay results from paper PMC4466390, “Canonical and Noncanonical Sites Determine NPT2A Binding Selectivity to NHERF1 PDZ1” (PLoS ONE, 2015).
# B1: NHERF1 PDZ1 (11–120) [human] / rhodamine-labeled 22-residue carboxy-terminal NPT2A peptide [modified: 5-(and 6)-carboxytetramethylrhodamine (rhodamine label), coupled to the peptidyl resin after synthesis; 5-(and … (parent)
# chain 1: LPRLCCLEKGPNGYGFHLHGEKGKLGQYIRLVEPGSPAEKAGLLAGDRLVEVNGENVEKETHQQVVSRIRAALNAVRLLVVDPETDEQLQKLGVQVREELLRAQEAPGQA
# chain 2: ELPPATPSPRLALPAHHNATRL
# Variants of: B1
# Assay: fluorescence polarisation
# Details: with rhodamine-labeled 22-residue carboxy-terminal NPT2A peptide [modified: 5-(and 6)-carboxytetramethylrhodamine (rhodamine label), labeled NPT2A peptide 1 µM, read at the highest PDZ1 concentration, est. ~120 µM, parent: 0.11, read off a plot
row,Variant,response
1,chain 1 H17N,0.1
2,chain 1 E33D,0.096
